# Data: patent US20150056210A1 (ROTTAPHARM BIOTECH S R L, published 2015)
# Target: T1, Spacer-GST (human)
# T1 construct: also called recombinant Spacer-ADAMTS-5-GST protein
# Assay: SPR (Biacore X-100), CRB0017_IgG4 immobilised on CM5 chip, Spacer-GST in solution, KD1
# T1 sequence (chain, as listed by the source limits assumed): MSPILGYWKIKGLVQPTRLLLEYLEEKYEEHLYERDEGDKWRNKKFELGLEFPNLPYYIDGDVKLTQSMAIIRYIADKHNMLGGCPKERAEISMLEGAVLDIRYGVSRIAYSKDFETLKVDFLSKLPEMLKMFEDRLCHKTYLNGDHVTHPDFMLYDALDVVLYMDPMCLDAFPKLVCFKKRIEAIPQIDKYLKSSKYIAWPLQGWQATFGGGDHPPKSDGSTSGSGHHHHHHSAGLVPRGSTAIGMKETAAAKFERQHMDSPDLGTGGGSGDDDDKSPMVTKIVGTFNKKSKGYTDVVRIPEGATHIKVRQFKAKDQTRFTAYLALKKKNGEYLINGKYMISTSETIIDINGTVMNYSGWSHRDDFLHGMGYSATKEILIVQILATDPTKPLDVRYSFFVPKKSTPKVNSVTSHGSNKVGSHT
row,Binder,Kd [nM]
1,"CRB0017_IgG4 (antibody, V domains shown, Chimeric IgG: murine variable domains on human constant domains (Fc from human IgG4, kappa light chain), made in CHO-S cells; also called mAb CRB0017; CRB017 IgG4) VH: QVQLQQSGAELAKPGASVKMSCKASGYTFTSYWMHWVKQRPGQGLEWIGYINPSTGYTEYNQKFKDKATLTADKSSSTAYMQLGSLTSEDSAVYYCARGGYDDLGYWGQGTTLTVSS VL: DIVITQDELSNPVTSGESVSISCRSSKSLLYKDGKTYLYWFLQRPGQSPQLPIYLMSTRASGVSDRFSGSGSGTDFTLEISRVKAEDVGVYYCQQLVEYPYTFGGGTKLEIK",~2

# Target: T1, Spacer-GST
# Assay: ELISA, Spacer-GST coated at 10 µg/mL, scFv in solution, anti-V5 detection
# Protocol: FIG. 3. ELISA reactivity of isolated anti-Sp_ADAMTS-5 scFvs with Spacer-GST and GST negative control. Spacer-GST and GST antigens were coated at 10 μg/mL. […] The mean absorbance at 450 nm of the experiments performed in duplicate wells is shown with SD indicated by the bars.
# Nunc Maxi-Sorp Immunoplate was coated with […] Sp_ADAMTS-5-GST and GST at 10 μg/mL in coating buffer (100 mM Na₂CO₃ pH 9.6). Plate was incubated overnight at 4° C. next day, the unbound antigens were discarded and plate was washed 3× with PBS. Non-specific binding was blocked by adding […] of 3% MPBS (3% fat free milk in PBS). Plate was incubated for 1 h at RT. Plate was washed 3×TPBS (0.1% Tween20 in PBS) and 3×PBS. 100 μL of serial dilution of anti-Sp_ADAMTS-5scFv (0.5-50 μg/mL) in 3% MPBS was added to appropriate wells. Then plate was incubated for 2 h at RT. After washing with 3×TPBS and 3×PBS, 100 μL of anti-V5 antibody (Invitrogen) diluted 1:5000 in 3% MPBS was added to each well. Plate was incubated for 1 h and 30 min at RT. After washing with 3×TPBS and 3×PBS 100 μL of anti-mouse HRP (DAKO) diluted 1:2000 in 3% MPBS was added to each well. Plate was incubated for 1 h at RT. After washing with 3×TPBS and 3×PBS 80 μL of TMB (Sigma) was added. Plate was incubated in dark chamber until samples reach the desired signal. 80 μL of stopping solution (500 mM H₂SO₄) was added to each well before reading. Data were collected measuring OD(450 nm) by LD 400 Luminescence Detector (Beckman Coulter).
row,Binder,binding result
1,"CRB0092 scFv (scFv, VP16 fusion in the yeast selection; also called clone C21) scFv: QSVVTQPPSVSGAPGQRVTISCTGSSSNIGAGYDVHWYQQLPGTAPKLLIYGNDNRPSGVPDRFSGSKSGTSASLAITGLQAEDEADYYCQSYDNSLSGYAVFGGGTQLTVLSGGSTSGSGKPGSGEGSSGTQVQLVESGGGLVQPGGSLRLSCAASGFRFSSHDMHWVRQVPGKGLEWVSRIGTVGDTYYADSVKGRFTISRDNSKNTLFLQMNSLGAEDTAVYYCARDGTRYCSRTSCHSGYYYYGMDVWGQGTTVTVSS",binds
2,"CRB0122 scFv (scFv, VP16 fusion in the yeast selection; also called clone S39) scFv: QVQLQESGGGLVRPGGSLRLSCAASGFTFSSYAMTWVRQAPGKGLEWVSAISGSGDSTYYADSVKGRFTISRDNSKNTLYLQMDSLRVEDTAVYYCARDRDLLHKDGFDIWGQGTMVTVSSSGGSTSGSGKPGSGEGSSGTQSVLTQPPSASASLGASVTLTCTLSSGYSNYKVDWYQQTPGKGPRFVMRVGTGGTVGSKGDGIPDRFSVLGSGLNRYLIIKNIQEEDETDYHCGADHGSGSNFVYVFGSGTKVTVL",binds
3,"CRB0091 scFv (scFv, VP16 fusion in the yeast selection; also called clone 7A (huSPLINT_09)) scFv: DIVMTQSPSSLSASVGDRVTITCRASQAIGNDLAWYQQRPGKAPKRLIYGASTLSSGVPSRFSGSGSGTEFTLTISSLQPDDFATYYCQQYNNFPYTFGLGTKVEIKSGGSTSGSGKPGSGEGSSGTQVQLQQWGAGLLKPSETLSLTCAVHGGSFSGNFWSWVRQHPGKGLEWIGEVNHRGSATYNPSLKSRVTMSVDTSKNQFSLQLSSVTAADTAVYYCARKLPRRRAEDRPSSLRPFDYWGQGTLVTVSS",binds
4,"CRB0018 scFv (scFv, VP16 fusion in the yeast selection; also called clone 7A (mSPLINT)) scFv: DIVMTQSPASLAVSQGQRATISCRASESVDSYGNSFMHWYQQKPGQPPKLPIYLASNLESGVPARFSGSGSRTDFTLTIDPVEADDAATYYCQQNNEELTFGAGTKLELKRSGGSTSGSGKPGSSEGSSGTEVKLLESGGGLVQPGGSLKLSCTTSGFDFSRYWMSWVRQAPGKGLEWIGEINPDSSTINYTPSLKDKFIISRDNAKNTLYLQMSKVRSEDTALYYCARRSYWYFDVWGAGTSVTVSS",binds
5,"CRB0124 scFv (scFv, VP16 fusion in the yeast selection; also called clone S53a) scFv: QVQLVQSGSDVKKPGASVRVSCKVSGYRLTEYPIHWVRQAPGKGLEYMGGFDLENGVTKAAPRFRGRFTMTEDTSTDSVYMELKSLTSEDTAVYYCVKGPGYGALVTSFTSWGLGTTVTVSSSGGSTSGSGKPGSGEGSSGTSYVLTQPPSVSVSPGQTASITCSGDKLEDKYACWYQQKPGQSPVLVIYHDYKRPSGIPERFSGSNSGNTATLTISRVEGGDEADYYCQVWDSGSDDQVFGGGTKLTVL",binds
6,"CRB0017 scFv (scFv, detected in ELISA with an anti-V5 antibody, tag not described; also called clone M6) scFv: DIVITQDELSNPVTSGESVSISCRSSKSLLYKDGKTYLYWFLQRPGQSPQLPIYLMSTRASGVSDRFSGSGSGTDFTLEISRVKAEDVGVYYCQQLVEYPYTFGGGTKLEIKRSGGSTRGSGKPGSGEGSSGTQVQLQQSGAELAKPGASVKMSCKASGYTFTSYWMHWVKQRPGQGLEWIGYINPSTGYTEYNQKFKDKATLTADKSSSTAYMQLGSLTSEDSAVYYCARGGYDDLGYWGQGTTLTVSS",binds
7,"CRB0094 scFv (scFv, VP16 fusion in the yeast selection; also called clone 48B) scFv: QSVLTQPPSASGSPGQSVTISCTGTSSDVGGYNYVSWYQQHPGKAPKLLIYDVSNRPSGVSSRFSGSKSGNSASLTISGLQAEDEADYYCSSYTRRSTLEFGGGTKLTVLSGGSTSGSGKPGSGEGSSGTQVQLQQWGAGLLKPSGTLSLTCAVYGGSFSGYYWSWIRQPPGKGLEWIGEINHSGSTNYNPSLKSRVTISVDTSKNQFSLKLSSVTAADTAVYYCARTIWSTRHDFWSGYYSSNWFDPWGQGTLVTVSS",binds
8,"CRB0123 scFv (scFv, VP16 fusion in the yeast selection; also called clone S50) scFv: QVQLQESGGGVVQPGRSLRLSCAASGFTFSGYGMNWVRQAPGTGLEWVATISFDGTDKYYADSVKGRFTISRDNAENTLYLQMNSLRAEDMAVYYCARDWSYAMDVWGQGTMVTVSSSGGSTSGSGKPGSGEGSSGTDIQMTQSPSSVSASVGDRVTITCRPSQGIGKYSAWYQQKPGKAPELPIYLASTLQSGVPSRFSDSGSGTEFTLTISSLQPEDFATYYCLQRNTYPWTFGQGTKVEIK",binds
9,"CRB0019 scFv (scFv, VP16 fusion in the yeast selection; also called clone 14) scFv: DIVMTQSHKFMSTSEGDRVSITCKASQDVGTAVAWYQQKPGQSPKLLIYWASTRHTGVPDRFTGSGSGTDFTLTISNVQSEDLADYICQQYCSHPYTFGAGTKLEIKRSGGSTSGSGKPGSGEGSRGTQVQLQQSGAEPVKPGASVKLSCTASGFNIKDTYMHWVKQRPEQGLEWIGRIDPAHGRTKYDPKFQGKATITADTSSNTAYLQLSSLSSEDTAVYYCAFYSYAIDYWGQGTSVTVSS",binds
10,"CRB0102 scFv (scFv, VP16 fusion in the yeast selection; also called clone 15A) scFv: EVQLVESGSDVKKPGASVRVSCKVSGYRLTEYPIHWVRQAPGKGLEYMGGFDLENGVTKAAPRFRGRFTMTEDTSTDSVYMELKSLTSEDTAVYYCVKGPGYGALVTSFTSWGLGTLVTVSSSGGSTSGSGKPGSGEGSSGTETTLTQSPAFMSATPGDKIYISCKASQDIDDDMNWYQQKPGEAAIFIIQEATTLVPGIPPRFSGSGYGTDFTLTINNMESEDAAYYFCPQQDNVPLTFGGGTKVDIK",binds

# Target: T1, Spacer-GST
# Assay: SPR (Biacore), Spacer-GST immobilised, CRB0017_IgG4 in solution, bivalent binding model, KD2, data not shown
row,Binder,Kd [nM]
1,"CRB0017_IgG4 (antibody, V domains shown, Chimeric IgG: murine variable domains on human constant domains (Fc from human IgG4, kappa light chain), made in CHO-S cells; also called mAb CRB0017; CRB017 IgG4) VH: QVQLQQSGAELAKPGASVKMSCKASGYTFTSYWMHWVKQRPGQGLEWIGYINPSTGYTEYNQKFKDKATLTADKSSSTAYMQLGSLTSEDSAVYYCARGGYDDLGYWGQGTTLTVSS VL: DIVITQDELSNPVTSGESVSISCRSSKSLLYKDGKTYLYWFLQRPGQSPQLPIYLMSTRASGVSDRFSGSGSGTDFTLEISRVKAEDVGVYYCQQLVEYPYTFGGGTKLEIK",7

# Target: T1, Spacer-GST
# Assay: sandwich ELISA with Spacer-GST, data not shown
row,Binder,binding result
1,"CRB0123_IgG4 (antibody, V domains shown, also called mAb CRB0123; monoclonal antibody CRB0123) VH: QVQLQESGGGVVQPGRSLRLSCAASGFTFSGYGMNWVRQAPGTGLEWVATISFDGTDKYYADSVKGRFTISRDNAENTLYLQMNSLRAEDMAVYYCARDWSYAMDVWGQGTMVTVSS VL: DIQMTQSPSSVSASVGDRVTITCRPSQGIGKYSAWYQQKPGKAPELPIYLASTLQSGVPSRFSDSGSGTEFTLTISSLQPEDFATYYCLQRNTYPWTFGQGTKVEIK",binds
2,"monoclonal antibody CRB0102 (antibody, V domains shown, also called CRB0102 IgG4) VH: EVQLVESGSDVKKPGASVRVSCKVSGYRLTEYPIHWVRQAPGKGLEYMGGFDLENGVTKAAPRFRGRFTMTEDTSTDSVYMELKSLTSEDTAVYYCVKGPGYGALVTSFTSWGLGTLVTVSS VL: ETTLTQSPAFMSATPGDKIYISCKASQDIDDDMNWYQQKPGEAAIFIIQEATTLVPGIPPRFSGSGYGTDFTLTINNMESEDAAYYFCPQQDNVPLTFGGGTKVDIK",binds
